The record followed here is US20200165613, “VIRUS LIKE PARTICLE” (The University of Leeds, published 2020).

Where a chain is given by its changes, count along the chain named.

The target of series [1] is T1, STNV coat protein wild-type (Satellite tobacco necrosis virus 1) (UniProt P03606).
T1 sequence: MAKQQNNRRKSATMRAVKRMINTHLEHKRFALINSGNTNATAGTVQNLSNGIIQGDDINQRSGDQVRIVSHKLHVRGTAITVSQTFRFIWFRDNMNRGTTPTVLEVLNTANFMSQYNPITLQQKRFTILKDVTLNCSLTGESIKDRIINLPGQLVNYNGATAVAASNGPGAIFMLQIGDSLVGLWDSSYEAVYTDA
Particulars: QELS after SEC; Rh 9.1 nm.

Series [2] concerns the target T2, STNV coat protein wild-type (Satellite tobacco necrosis virus 1, UniProt P03606 P03606:1-196).
T2 sequence: T1 sequence
Put plainly: smFCS; more efficient than wild-type 127-mer. Particulars: chain copies: trimeric capsomer / T=1 capsid; label: 5' Alexa Fluor 488; five stem-loops.

For series [3], the target named is T2, STNV coat protein wild-type. The series can be described thus: competition; unlabelled B3 displaces AF488-B3 at 100-fold excess. As to conditions: chain copies: trimeric capsomer / T=1 capsid; stem-loop.
The target is the same in series [4]. The series can be described thus: smFCS; T=1 at lower CP than wild-type 127-mer. Particulars: chain copies: trimeric capsomer / T=1 capsid; label: 5' Alexa Fluor 488; five stem-loops.
For series [5] the target is unchanged. Put plainly: smFCS; T=1 but cooperativity lost. As to conditions: chain copies: trimeric capsomer / T=1 capsid; label: 5' Alexa Fluor 488.
Series [6] shares this target. Put plainly: svAUC; T=1 capsids with similar efficiency to PS3; 2 mM Ca2+. As to conditions: chain copies: trimeric capsomer / T=1 capsid; stem-loop.
The target is the same in series [7]. The series can be described thus: competition; competes; forms T=1; text states low nanomolar affinity for AUUA. Particulars: chain copies: trimeric capsomer / T=1 capsid; stem-loop.
Series [8] shares this target. The series can be described thus: smFCS; best assembly substrate. Particulars: chain copies: trimeric capsomer / T=1 capsid; label: 5' Alexa Fluor 488; five stem-loops.
Series [9] has the same target. The series can be described thus: smFCS; Rh collapse 20-30% then cooperative T=1 assembly. As to conditions: chain copies: trimeric capsomer / T=1 capsid; label: 5' Alexa Fluor 488; five stem-loops.
Series [10] has the same target. Put plainly: competition; competes with B3; T=1 peak in svAUC. As to conditions: chain copies: trimeric capsomer / T=1 capsid; stem-loop.

In series [1], STNV-1 genome yielded an activity (% relative VLP yield) of 80.

B1: All PS3 (ssRNA)
RNA: GGGCCCCGCAACAAUGCGGGGAAGGAAGGAAGGAAGAAAACGUACAAACGUUUUAAGGAACAACGCAACAAUGCGUUGAAGGAAGGAAGGAAGGGGCGUACAAACGCCCCAAGGAAUUUUGCAACAAUGCAAAAAAGGAA
On to B1, for which the binding result in series [2] was “binds”.

B2: B3 short / PS3 ACAA (ssRNA)
RNA: ACAUGCAACAAUGCACAC
Turning to B2, the binding result in series [3] was “binds”.

B3: Stable PS1-5 (ssRNA)
RNA: GGGCUGCCCUCAAGGACCAGGGCAGAAAAGAGGAAAAGAAAAGUGACAGAACACUUAUAAGGAACCACACAAGUGGAAGGAAAAAAGGAAGCUGCAAUAGCGCAAGGAAUCCGAAAAUUCGGAAAGGAA
With B3, in series [4], the binding result was “binds”.

B4: Unstable PS1-5 (ssRNA)
RNA: B3 RNA with G75A, G76U
As to B4, the binding result in [5] is “binds”.

B5: B3 AUGA (ssRNA)
RNA: ACAUGCAAUGAUGCACAC
On to B5, for which the binding result in [6] is on record as “binds”.

B6: B3 AUUA (ssRNA)
RNA: ACAUGCAAUUAUGCACAC
Turning to B6, the binding result in [7] is reported as “binds”.

B7: Synthetic, stabilised PS1-5 (ssRNA)
RNA: GGGCUGCCCUCAAGGACCAGGGCAGAAAAGAGGAAAAGAAAAGUGACAGAACACUUAUAAGGAAAAAACGUACAAACGUUUUAAGGAAAAAAGGAAGCUGCAAUAGCGCAAGGAAUCCGAAAAUUCGGAAAGGAA
Turning to B7, the binding result in series [8] is “binds”.

B8: B3 AGGA (ssRNA)
RNA: ACAUGCAAGGAUGCACAC
On to B8, for which, in series [6], the binding result is listed as “binds”.

B9: B3 AGUA (ssRNA)
RNA: ACAUGCAAGUAUGCACAC
For B9, the binding result in series [6] is given as “binds”.

B10: B3 AAAA (ssRNA)
RNA: ACAUGCAAAAAUGCACAC
As for B10, in series [6], the binding result is given as “binds”.

B11: STNV-1 PS1-5 127-mer (ssRNA)
RNA: GAGUAAAGACAGGAAACUUUACUGACUAACAUGGCAAAACAACAGAACAACAGGCGAAAAUCCGCAACAAUGCGUGCAGUGAAGCGCAUGAUAAAUACACACUUGGAGCAUAAAAGGUUUGCACUGA
Consider B11, for which the binding result in [9] is on record as “binds”.

B12: B3 UUUA (ssRNA)
RNA: ACAUGCAUUUAUGCACAC
Consider B12, for which the binding result in [10] was “binds”.
